PMC2990918

Target: normal undigested taxol microtubules (αβ-MTs) of porcine brain tubulin (porcine (brain)) (UniProt P02550)
Assay: co-sedimentation

“CLIP-170 MT-binding domain fragment H1^1–350 (from UniProt P30622 1-350) (domain or fragment)” gave a Kd of 510 nM and a percent dissociated at 100 mM NaCl of 30%.
